From US20150376238A1 (University of Washington, published 2015)

Biological target: H3 subtype hemagglutinin (strain not stated)

| Binder | Kd [nM] |
| --- | --- |
| Variant H3 24-3a (I2T, V29E) (designed binder) GTGMVAISMDTDKISNSFEDCKYFLIVVESAGWTNTIFNDESGKKEIVKMNVDAIICKNISEENYKKFSKKIEIYHAEGDDVDKNISLFIEGELSKISNP | 7.92 |
| Variant H3 24-2 (V27M, F38S, K49E) (designed binder) GIGMVAISMDTDKISNSFEDCKYFLIMVVSAGWTNTISNDESGKKEIVEMNVDAIICKNISEENYKKFSKKIEIYHAEGDDVDKNISLFIEGELSKISNP | 8.97 |
| Variant H3 24-8 (V27M, K49E) (designed binder) GTGMVAISMDTDKISNSFEDCKYFLIMVVSAGWTNTIFNDESGKKEIVEMNVDAIICKNISEENYKKFSKKIEIYHAEGDDVDKNISLFIEGELSKISNPLE | 14.8 |
| Variant H3 24-3b (V28M) (designed binder) GTGMVAISMDTDKISNSFEDCKYFLIVMVSAGWTNTIFNDESGKKEIVKMNVDAIICKNISEENYKKFSKKIEIYHAEGDDVDKNISLFIEGELSKISNPLE | 12.7 |
